The values that follow come from patent US20070212357A1 (published 2007).

Substitutions are numbered along the chain they refer to.

By koff is commonly meant the first-order rate constant of dissociation. Lower therefore signals a long-lived complex. In general, Kd refers to the constant that tells how readily two partners part at equilibrium. By kon is commonly meant the rate constant with which the complex forms. A higher kon goes with fast association.

Test [1] has as its target T1, human NGF (human, UniProt P01138 122-241).
T1 construct: also called hNGF; human nerve growth factor
Briefly: SPR (BIAcore), Fab over CM5 chip with 100 RU of immobilized human NGF.

Test [2] addresses T1, human NGF. Nature of the test: SPR (BIAcore), Fab over immobilized human NGF. (In general: SPR reads the build-up and loss of mass on a sensor chip optically.)
Test [3] concerns the target T1, human NGF. Briefly: SPR (BIAcore), Fab over immobilized human NGF. The source holds these as a separate data set.
In the next test the target is rat NGF (rat) (UniProt P25427). Nature of the test: cell-based or functional assay.
Test [4] addresses T1, human NGF. Briefly: cell-based or functional assay.
Test [5] concerns the target T1, human NGF. Briefly: SPR (BIAcore), human NGF on chip; KD calculated using kon 4e4 M-1s-1.
Test [6] addresses T1, human NGF. Briefly: SPR (BIAcore) screening, human NGF on chip; KD calculated using kon 4e4 M-1s-1. The method, then:
Affinities of anti-NGF Fabs and monoclonal antibodies were determined using the BIAcore3000™ surface plasmon resonance (SPR) system (BIAcore, INC, Piscaway N.J.). CM5 chips were activated with N-ethyl-N′-(3-dimethylaminopropyl)-carbodiinide hydrochloride (EDC) and N-hydroxysuccinimide (NHS) according to the supplier's instructions. Human NGF was diluted into 10 mM sodium acetate pH 4.0 and injected over the activated chip at a concentration of 0.005 mg/mL. Using variable flow time across the individual chip channels, two ranges of antigen density were achieved: 100-200 response units (RU) for detailed kinetic studies and 500-600 RU for screening assays. The chip was blocked with ethanolamine. […] HBS-EP buffer (0.01M HEPES, pH 7.4, 0.15 NaCl, 3 mM EDTA, 0.005% Surfactant […]) was used as running buffer for all the BIAcore assays.

T1 sequence (P01138 122-241 limits assumed): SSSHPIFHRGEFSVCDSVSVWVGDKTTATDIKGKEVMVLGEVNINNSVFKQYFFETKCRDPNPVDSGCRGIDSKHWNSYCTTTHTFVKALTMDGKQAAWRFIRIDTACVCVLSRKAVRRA
Chain of rat NGF (rat) (P25427 122-241 limits assumed): as the sequence (P01138 122-241 limits assumed) above, with S3T, I6V, R9M, M37T, D60A, D65E, M92T, G94D, V117A, A120G counted along it

mouse antibody 911 (Fab) yielded a koff with human NGF [1] of 8.4e-05 s⁻¹. The Kd with human NGF [2] amounted to 10 nM. For the same molecule, in the test with human NGF [3], the Kd was 3.7 nM, the koff was 9e-05 s⁻¹ and the kon turned out to be 22000 M⁻¹ s⁻¹. In the test with rat NGF (rat), this molecule came in with an IC50 (1.5 pM NGF), rat NGF-dependent survival of mouse E13.5 trigeminal neurons of 34.6 pM and an IC50 (15 pM NGF), rat NGF-dependent survival of mouse E13.5 trigeminal neurons of 161 pM. Besides, in the test with human NGF [4], the IC50 (in the presence of 1.5 pM NGF), human NGF-dependent survival of mouse E13.5 trigeminal neurons turned out to be 63.5 pM and the IC50 (in the presence of 15 pM NGF), human NGF-dependent survival of mouse E13.5 trigeminal neurons amounted to 322 pM.

B1: H19-L129 (Fab, V domains shown)
VH: QVQLQESGPGLVKPSETLSLTCTVSGFSLIGYDLNWIRQPPGKGLEWIGIIWGDGTTDYNSAVKSRVTISKDTSKNQFSLKLSSVTAADTAVYYCARGGYYYGTSYYFDYWGQGTLVTVS
VL: DIQMTQSPSSLSASVGDRVTITCRASQSISNNLNWYQQKPGKAPKLLIYYTSRFHSGVPSRFSGSGSGTDFTFTISSLQPEDIATYYCQQSKTLPYTFGQGTKLEIKR
notes: Combined clone with matured CDRs H1, H2, L1, L2 and grafted H3 and L3; Fab; human Ck, human IgG2a CH1, his tag; also called H19-L129 Fab; Fab H19-L129
For B1, in the test with human NGF [5], the Kd was 3.5 nM.

B2: L_S91E; L_K92R; H_Y101W; H_G103A (8L2-6D5 template) (Fab, V domains shown)
VH: B1 VH with L34I, I50M, V63L, Y101W, G103A
VL: B1 VL with S28D, N32H, T51I, S91E, K92R
notes: Human Ck, human IgG2a CH1, his tag
B2: the Kd with human NGF [6] was 25 nM.
